2 molecules from patent publication US8309523 (VIB VZW, dated 2012) can be followed below.

Assay [1] addresses T1, p76 fragment of MALT1 (Avi-tagged expression construct) (human, UniProt Q9UDY8 150-824, Avi-tag biotinylated in vivo by co-expressed BirA).
T1 construct: domain: p76 cleavage fragment; Lacks the N-terminal death domain; also called MALT1 p76; 76 kDa C-terminal fragment
T1 sequence (looked up): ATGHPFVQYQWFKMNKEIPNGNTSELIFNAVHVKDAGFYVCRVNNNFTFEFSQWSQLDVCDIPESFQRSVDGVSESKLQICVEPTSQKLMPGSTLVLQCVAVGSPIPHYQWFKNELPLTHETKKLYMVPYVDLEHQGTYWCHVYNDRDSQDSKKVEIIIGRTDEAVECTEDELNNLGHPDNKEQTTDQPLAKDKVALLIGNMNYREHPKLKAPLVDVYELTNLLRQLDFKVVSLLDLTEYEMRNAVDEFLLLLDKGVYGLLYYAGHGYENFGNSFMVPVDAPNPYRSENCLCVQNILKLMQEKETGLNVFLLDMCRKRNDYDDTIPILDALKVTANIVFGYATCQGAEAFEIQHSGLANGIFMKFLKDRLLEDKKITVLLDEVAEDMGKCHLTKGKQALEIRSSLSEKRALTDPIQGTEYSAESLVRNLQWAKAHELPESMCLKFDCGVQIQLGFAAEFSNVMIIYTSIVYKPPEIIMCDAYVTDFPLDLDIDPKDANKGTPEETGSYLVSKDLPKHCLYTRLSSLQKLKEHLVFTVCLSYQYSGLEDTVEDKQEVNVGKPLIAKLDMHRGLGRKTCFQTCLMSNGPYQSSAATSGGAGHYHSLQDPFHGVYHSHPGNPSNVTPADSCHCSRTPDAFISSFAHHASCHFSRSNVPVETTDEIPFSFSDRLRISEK
As to the kind of experiment: bio-IP from HEK293T cells, anti-TRAF6 immunoblot. An excerpt:
(§1) FIG. 5: p76 activates NFκB via TRAF6. […] Panel B) TRAF6 mediates NFκB signaling by p76. Top: NFκB-reporter assays of HEK293T cells transiently expressing MALT1, p76 and mutants or MALT1-C. Bottom: MALT1, p76 or MALT1-C, transiently expressed in HEK293T cells, were purified via bio-IPs and immunoblotted with anti-MALT1 (to show equal expression), anti-TRAF6 and anti-BCL10. Panel C) p76 induces polyubiquitination of IKKγ. Immunoblot analysis of bio-IP and IKKγ-IP of 293T cells transfected with pcD-F-IKKγ and pcd-HA-Ub in combination with indicated Avi-tagged MALT1 constructs. Panel D) BCL10 is not involved in NFκB signaling by p76. NFκB reporter assays of HEK-293T cells transfected with siRNA duplexes against MALT1, BCL10 or GFP (as control) followed by transient transfection with p76. The expression levels were determined by immunoblot with anti-MALT1 and anti-BCL10. NFκB-dependent luciferase activity […] is shown as fold induction of vector-transfected cells and represents the mean+/−S.D. of three independent experiments.
NFκB activation by MALT1 requires TRAF6 binding via two distinct sites (19), which are both present in the p76 cleavage fragment. Mutation of one TRAF6 binding site, either E313A/E316A (T6Ig-m) or E806A (T6C-m), abolished the potential of p76 to activate NFκB signaling in 293T cells (FIG. 5, Panel B). […] Furthermore, NFκB activation by p76 in 293T cells was associated with increased polyubiquitination of IKKγ (FIG. 5, Panel C).

The next assay deals with T2, MALT1-R149A (bio-tagged) (human, UniProt Q9UDY8 1-824, Avi-tag biotinylated in vivo by co-expressed BirA).
T2 construct: also called R149A mutant
T2 sequence (looked up): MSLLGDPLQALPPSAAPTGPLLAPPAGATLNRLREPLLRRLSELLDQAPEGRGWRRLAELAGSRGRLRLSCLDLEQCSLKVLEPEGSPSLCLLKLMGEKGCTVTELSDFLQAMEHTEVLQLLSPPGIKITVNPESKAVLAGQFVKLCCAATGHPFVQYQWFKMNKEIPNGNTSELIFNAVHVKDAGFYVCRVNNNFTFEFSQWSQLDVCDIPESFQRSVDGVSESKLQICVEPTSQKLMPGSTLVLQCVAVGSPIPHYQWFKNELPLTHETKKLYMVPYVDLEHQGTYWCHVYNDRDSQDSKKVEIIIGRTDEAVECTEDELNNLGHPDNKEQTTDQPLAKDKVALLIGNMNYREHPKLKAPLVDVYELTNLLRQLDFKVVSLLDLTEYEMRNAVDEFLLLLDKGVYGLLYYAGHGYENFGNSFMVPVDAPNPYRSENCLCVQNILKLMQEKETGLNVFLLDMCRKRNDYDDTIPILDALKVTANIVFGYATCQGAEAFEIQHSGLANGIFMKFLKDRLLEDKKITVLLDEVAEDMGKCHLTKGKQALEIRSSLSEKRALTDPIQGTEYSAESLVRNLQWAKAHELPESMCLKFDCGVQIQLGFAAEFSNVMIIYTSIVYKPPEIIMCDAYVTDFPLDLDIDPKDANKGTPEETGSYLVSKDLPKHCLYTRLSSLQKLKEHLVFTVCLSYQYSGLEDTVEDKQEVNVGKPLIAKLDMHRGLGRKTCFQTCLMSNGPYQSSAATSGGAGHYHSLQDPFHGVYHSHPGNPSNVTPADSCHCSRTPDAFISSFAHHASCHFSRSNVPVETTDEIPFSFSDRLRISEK
As to the kind of experiment: co-IP (bio-IP, immunoblot).

Assay [2] concerns the target T1, p76 fragment of MALT1 (Avi-tagged …). In words: bio-IP from HEK293T cells, anti-BCL10 immunoblot.
Text: as §1

B1: TRAF6 (other, UniProt Q9Y4K3 1-522, looked up)
chain: MSLLNCENSCGSSQSESDCCVAMASSCSAVTKDDSVGGTASTGNLSSSFMEEIQGYDVEFDPPLESKYECPICLMALREAVQTPCGHRFCKACIIKSIRDAGHKCPVDNEILLENQLFPDNFAKREILSLMVKCPNEGCLHKMELRHLEDHQAHCEFALMDCPQCQRPFQKFHINIHILKDCPRRQVSCDNCAASMAFEDKEIHDQNCPLANVICEYCNTILIREQMPNHYDLDCPTAPIPCTFSTFGCHEKMQRNHLARHLQENTQSHMRMLAQAVHSLSVIPDSGYISEVRNFQETIHQLEGRLVRQDHQIRELTAKMETQSMYVSELKRTIRTLEDKVAEIEAQQCNGIYIWKIGNFGMHLKCQEEEKPVVIHSPGFYTGKPGYKLCMRLHLQLPTAQRCANYISLFVHTMQGEYDSHLPWPFQGTIRLTILDQSEAPVRQNHEEIMDAKPELLAFQRPTIPRNPKGFGYVTFMHLEALRQRTFIKDDTLLVRCEVSTRFDMGSLRREGFQPRSTDAGV
notes: Co-precipitated from lysates of human cell lines
With B1, the binding result in assay [1] was “binds”.

B2: BCL10 (other, UniProt O95999 1-233, looked up)
chain: MEPTAPSLTEEDLTEVKKDALENLRVYLCEKIIAERHFDHLRAKKILSREDTEEISCRTSSRKRAGKLLDYLQENPKGLDTLVESIRREKTQNFLIQKITDEVLKLRNIKLEHLKGLKCSSCEPFPDGATNNLSRSNSDESNFSEKLRASTVMYHPEGESSTTPFFSTNSSLNLPVLEVGRTENTIFSSTTLPRPGDPGAPPLPPDLQLEEEGTCANSSEMFLPLRSRTVSRQ
notes: as for B1
With B2, the binding result is recorded as “binds” with MALT1-R149A (bio-tagged) and “no binding” in assay [2].
